Assay results: article PMC4983110, “Shared and distinct functions of the pseudokinase CORYNE (CRN) in shoot and root stem cell maintenance of Arabidopsis” (Journal of Experimental Botany, 2016)

What was measured:
Test in all cases: FRET or BRET; FRET-APB (acceptor photobleaching) in transiently transformed Nicotiana benthamiana cells; GFP donor, mCherry acceptor bleached in a region along the plasma membrane; apparent FRET efficiency as donor-dequenching in %
[1] = target: CLAVATA2 (CLV2), wild type, tagged with mCherry (Arabidopsis thaliana) (UniProt O80809)
[2] = target: chimeric protein of the CLV2 LRR-receptor and its TMD fused to the CRN kinase domain, tagged with GFP (Arabidopsis thaliana) (UniProt Q9LYU7)
[3] = target: CLV2 with the entire RxR motif deleted, tagged with GFP (Arabidopsis thaliana) (UniProt O80809)
[4] = target: CLV2 with the first conserved arginine of the RxR motif replaced with an alanine, tagged with GFP (Arabidopsis thaliana) (UniProt O80809)
[5] = target: T1, CLAVATA2 (CLV2), wild type, tagged with GFP (Arabidopsis thaliana, UniProt O80809 26-720); details: partners not purified
T1 construct: CLAVATA2 (CLV2), Arabidopsis thaliana, LRR receptor-like protein, wild type, from cDNA; also called CLV2-GFP; source: N. benthamiana, transiently expressed from an inducible vector, in living cells
T1 sequence (looked up): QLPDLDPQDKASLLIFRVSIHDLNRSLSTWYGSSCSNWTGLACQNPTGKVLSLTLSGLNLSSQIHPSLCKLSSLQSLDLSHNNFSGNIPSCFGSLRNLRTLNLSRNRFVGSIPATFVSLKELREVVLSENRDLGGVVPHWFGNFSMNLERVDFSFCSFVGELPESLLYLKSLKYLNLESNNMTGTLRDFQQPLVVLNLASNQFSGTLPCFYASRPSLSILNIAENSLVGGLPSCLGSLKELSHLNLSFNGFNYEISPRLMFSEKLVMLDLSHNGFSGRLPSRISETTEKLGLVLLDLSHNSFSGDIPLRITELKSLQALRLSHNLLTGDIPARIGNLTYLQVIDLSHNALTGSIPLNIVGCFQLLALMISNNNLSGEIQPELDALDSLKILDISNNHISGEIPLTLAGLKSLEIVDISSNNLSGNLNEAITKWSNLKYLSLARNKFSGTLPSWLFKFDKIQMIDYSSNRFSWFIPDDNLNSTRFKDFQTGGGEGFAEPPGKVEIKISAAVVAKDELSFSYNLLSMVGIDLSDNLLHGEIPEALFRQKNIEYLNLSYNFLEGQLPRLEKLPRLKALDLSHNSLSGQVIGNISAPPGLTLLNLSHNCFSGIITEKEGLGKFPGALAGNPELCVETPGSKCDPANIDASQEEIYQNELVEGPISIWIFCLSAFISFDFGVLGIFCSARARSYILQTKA

[6] = target: T2, CLAVATA2 (CLV2), wild type, tagged with mCherry (Arabidopsis thaliana, UniProt O80809 26-720); details: partners not purified
T2 construct: CLAVATA2 (CLV2), Arabidopsis thaliana, LRR receptor-like protein, wild type, from cDNA; also called CLV2-mCherry; source: N. benthamiana, transiently expressed from an inducible vector, in living cells
T2 sequence (looked up): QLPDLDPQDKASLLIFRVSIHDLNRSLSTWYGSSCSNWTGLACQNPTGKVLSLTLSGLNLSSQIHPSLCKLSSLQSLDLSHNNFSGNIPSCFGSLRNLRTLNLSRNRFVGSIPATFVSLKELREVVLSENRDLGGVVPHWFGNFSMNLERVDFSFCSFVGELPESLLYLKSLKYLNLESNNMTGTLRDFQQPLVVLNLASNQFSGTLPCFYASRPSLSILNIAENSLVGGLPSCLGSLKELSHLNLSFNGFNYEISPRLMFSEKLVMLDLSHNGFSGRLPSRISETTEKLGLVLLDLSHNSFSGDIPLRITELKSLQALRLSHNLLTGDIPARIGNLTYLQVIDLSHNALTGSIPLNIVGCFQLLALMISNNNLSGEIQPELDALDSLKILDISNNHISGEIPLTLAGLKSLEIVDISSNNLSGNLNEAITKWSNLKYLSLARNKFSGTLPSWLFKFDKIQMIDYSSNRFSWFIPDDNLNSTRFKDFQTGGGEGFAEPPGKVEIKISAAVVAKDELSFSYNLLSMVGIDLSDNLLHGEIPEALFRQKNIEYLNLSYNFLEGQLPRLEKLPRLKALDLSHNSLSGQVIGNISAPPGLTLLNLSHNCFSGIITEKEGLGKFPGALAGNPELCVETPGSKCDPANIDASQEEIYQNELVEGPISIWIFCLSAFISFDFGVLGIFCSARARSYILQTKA

CRN lacking the proximal part of the extracellular domain adjacent to the TMD, tagged with GFP (from UniProt Q9LYU7 34-62) (natural protein)
D-d (%) (donor-dequenching, apparent FRET efficiency) [1]: 10.5%

CRN lacking the entire extracellular domain, tagged with GFP (from UniProt Q9LYU7 34-62) (natural protein)
D-d (%) (donor-dequenching, apparent FRET efficiency) [1]: 7.2%

chimera of CRN in which the kinase is replaced with the kinase domain of CLV1, tagged with GFP (from UniProt Q9SYQ8 692-968)
D-d (%) (donor-dequenching, apparent FRET efficiency) [1]: 10.3%

CRN lacking the N-terminal, distal part of the extracellular domain, tagged with GFP (from UniProt Q9LYU7 34-62) (natural protein)
D-d (%) (donor-dequenching, apparent FRET efficiency) [1]: 11.2%

shortened CRN protein lacking the kinase, tagged with GFP (domain or fragment)
D-d (%) (donor-dequenching, apparent FRET efficiency) [1]: 24.5%

B1: CORYNE (CRN), wild type, tagged with mCherry (natural protein, Arabidopsis thaliana, UniProt Q9LYU7 34-401, looked up)
chain: TSCRRRTVKHLSTTSTSSTPLESRITSKVIVISIVSGILTGLVSALVLAFLVRSIVKFMKQTPILKGPVVFSPKITPKSLHAALSNGIQLLGSDLNGKYYKMVLDNGLVVAVKRLGSLEGVGSPESSSSKSVKRRLQKELELLAGLRHRNLMSLRAYVRESDEFSLVYDYMPNGSLEDVMNKVRTKEVELGWEIRLRVAVGIVKGLQYLHFSCETQILHYNLKPTNVMLDSEFEPRLADCGLAKIMPSSHTAVSCYSAPESSQSNRYTDKSDIFSFGMILGVLLTGRDPTHPFCEESASGGSLGQWLKHLQQSGEAREALDKTILGEEVEEDEMLMALRITIICLSDFPADRPSSDELVHMLTQLHSF
notes: CORYNE (CRN), Arabidopsis thaliana, wild type, from cDNA; the longer splice variant, not gene model AT5G13290.1; also called CRN-mCherry; source: N. benthamiana, transiently expressed from an inducible vector, in living cells
D-d (%) (donor-dequenching, apparent FRET efficiency) [2]: 5.7% | D-d (%) (donor-dequenching, apparent FRET efficiency) [3]: 11.4% | D-d (%) (donor-dequenching, apparent FRET efficiency) [4]: 14.2% | D-d (%) (donor-dequenching, apparent FRET efficiency) [5]: 11.7%

B2: CORYNE (CRN), wild type, tagged with GFP (natural protein, Arabidopsis thaliana, UniProt Q9LYU7 34-401, looked up)
chain: TSCRRRTVKHLSTTSTSSTPLESRITSKVIVISIVSGILTGLVSALVLAFLVRSIVKFMKQTPILKGPVVFSPKITPKSLHAALSNGIQLLGSDLNGKYYKMVLDNGLVVAVKRLGSLEGVGSPESSSSKSVKRRLQKELELLAGLRHRNLMSLRAYVRESDEFSLVYDYMPNGSLEDVMNKVRTKEVELGWEIRLRVAVGIVKGLQYLHFSCETQILHYNLKPTNVMLDSEFEPRLADCGLAKIMPSSHTAVSCYSAPESSQSNRYTDKSDIFSFGMILGVLLTGRDPTHPFCEESASGGSLGQWLKHLQQSGEAREALDKTILGEEVEEDEMLMALRITIICLSDFPADRPSSDELVHMLTQLHSF
notes: CORYNE (CRN), Arabidopsis thaliana, wild type, from cDNA; Residue numbers (G70, S156, Q296) count on the longer splice variant, not on gene model AT5G13290.1, on which S156 is S131; also called CRN-GFP; source: N. benthamiana, transiently expressed from an inducible vector, in living cells
D-d (%) (donor-dequenching, apparent FRET efficiency) [6]: 10.5%

B3: CRN with S156A (phosphomute variant), tagged with GFP (natural protein, Arabidopsis thaliana, UniProt Q9LYU7 34-401, looked up)
chain: TSCRRRTVKHLSTTSTSSTPLESRITSKVIVISIVSGILTGLVSALVLAFLVRSIVKFMKQTPILKGPVVFSPKITPKSLHAALSNGIQLLGSDLNGKYYKMVLDNGLVVAVKRLGSLEGVGAPESSSSKSVKRRLQKELELLAGLRHRNLMSLRAYVRESDEFSLVYDYMPNGSLEDVMNKVRTKEVELGWEIRLRVAVGIVKGLQYLHFSCETQILHYNLKPTNVMLDSEFEPRLADCGLAKIMPSSHTAVSCYSAPESSQSNRYTDKSDIFSFGMILGVLLTGRDPTHPFCEESASGGSLGQWLKHLQQSGEAREALDKTILGEEVEEDEMLMALRITIICLSDFPADRPSSDELVHMLTQLHSF
notes: CRN, Arabidopsis thaliana, serine 156 replaced with alanine; S156 is S131 on gene model AT5G13290.1 (the shorter splice variant); also called CR(SA)-GFP; CR(SA); source: N. benthamiana, transiently expressed, in living cells
D-d (%) (donor-dequenching, apparent FRET efficiency) [6]: 13.5%

B4: CRN with S156D (putative phosphomimetic variant), tagged with GFP (natural protein, Arabidopsis thaliana, UniProt Q9LYU7 34-401, looked up)
chain: TSCRRRTVKHLSTTSTSSTPLESRITSKVIVISIVSGILTGLVSALVLAFLVRSIVKFMKQTPILKGPVVFSPKITPKSLHAALSNGIQLLGSDLNGKYYKMVLDNGLVVAVKRLGSLEGVGDPESSSSKSVKRRLQKELELLAGLRHRNLMSLRAYVRESDEFSLVYDYMPNGSLEDVMNKVRTKEVELGWEIRLRVAVGIVKGLQYLHFSCETQILHYNLKPTNVMLDSEFEPRLADCGLAKIMPSSHTAVSCYSAPESSQSNRYTDKSDIFSFGMILGVLLTGRDPTHPFCEESASGGSLGQWLKHLQQSGEAREALDKTILGEEVEEDEMLMALRITIICLSDFPADRPSSDELVHMLTQLHSF
notes: CRN, Arabidopsis thaliana, serine 156 replaced with aspartic acid; S156 is S131 on gene model AT5G13290.1 (the shorter splice variant); also called CR(SD)-GFP; CR(SD); source: N. benthamiana, transiently expressed, in living cells
D-d (%) (donor-dequenching, apparent FRET efficiency) [6]: 12.2%

B5: crn-1 variant of CRN (G70E in the predicted TMD), tagged with GFP (natural protein, Arabidopsis thaliana, UniProt Q9LYU7 34-401, looked up)
chain: TSCRRRTVKHLSTTSTSSTPLESRITSKVIVISIVSEILTGLVSALVLAFLVRSIVKFMKQTPILKGPVVFSPKITPKSLHAALSNGIQLLGSDLNGKYYKMVLDNGLVVAVKRLGSLEGVGSPESSSSKSVKRRLQKELELLAGLRHRNLMSLRAYVRESDEFSLVYDYMPNGSLEDVMNKVRTKEVELGWEIRLRVAVGIVKGLQYLHFSCETQILHYNLKPTNVMLDSEFEPRLADCGLAKIMPSSHTAVSCYSAPESSQSNRYTDKSDIFSFGMILGVLLTGRDPTHPFCEESASGGSLGQWLKHLQQSGEAREALDKTILGEEVEEDEMLMALRITIICLSDFPADRPSSDELVHMLTQLHSF
notes: CRN, Arabidopsis thaliana, with the amino acid exchange G70E of the EMS-induced crn-1 allele in the predicted TMD; also called crn-1-GFP; source: N. benthamiana, transiently expressed, in living cells
D-d (%) (donor-dequenching, apparent FRET efficiency) [6]: 5.2%

B6: crn-3 variant of CRN (translational stop at Q296, kinase domain shortened by one third), tagged with GFP (domain or fragment, Arabidopsis thaliana, UniProt Q9LYU7 34-295, looked up)
chain: TSCRRRTVKHLSTTSTSSTPLESRITSKVIVISIVSGILTGLVSALVLAFLVRSIVKFMKQTPILKGPVVFSPKITPKSLHAALSNGIQLLGSDLNGKYYKMVLDNGLVVAVKRLGSLEGVGSPESSSSKSVKRRLQKELELLAGLRHRNLMSLRAYVRESDEFSLVYDYMPNGSLEDVMNKVRTKEVELGWEIRLRVAVGIVKGLQYLHFSCETQILHYNLKPTNVMLDSEFEPRLADCGLAKIMPSSHTAVSCYSAPESS
notes: signal peptide in the construct; CRN, Arabidopsis thaliana, truncated by the point mutation at Q296 of the EMS-induced crn-3 allele, which causes a translational stop; also called crn-3-GFP; source: N. benthamiana, transiently expressed, in living cells
D-d (%) (donor-dequenching, apparent FRET efficiency) [6]: 18.3%
